FireProtDB (doi:10.1021/bi500238q)

Conditions: Geobacillus kaustophilus (strain HTA426), pH 7, Thermal, CD, Potassium Phosphate Buffer 10 mM, whole UniProt chain shown

B1: Dihydrofolate reductase wild type, Q5KZ26 (protein)
chain: MISHIVAMDENRVIGKDNRLPWHLPADLAYFKRVTMGHAIVMGRKTFEAIGRPLPGRDNVVVTRNRSFRPEGCLVLHSLEEVKQWIASRADEVFIIGGAELFRATMPIVDRLYVTKIFASFPGDTFYPPISDDEWEIVSYTPGGKDEKNPYEHAFIIYERKKAK
With B1 the Tm (KCl 0.1 M) was 66.9 °C, the Tm (KCl 0.2 M) was 67.9 °C and the Tm (KCl 0.5 M) was 68.3 °C. For the same protein, the Tm (KCl 1 M) was 70.1 °C, the Tm (KCl 1.5 M) was 71.7 °C and the Tm (KCl 2 M) was 73.8 °C. The Tm (KF 0.1 M) was 66.8 °C, the Tm (KF 0.2 M) was 67.5 °C and the Tm (KF 0.5 M) was 68.6 °C. The Tm (KF 1 M) was 71 °C, the Tm (KF 1.5 M) was 73.8 °C and the Tm (KF 2 M) was 74.6 °C. For the same protein, the Tm (NaCl 0.1 M) was 66.8 °C, the Tm (NaCl 0.2 M) was 67.2 °C and the Tm (NaCl 0.5 M) was 67.6 °C. For the same protein, the Tm (NaCl 1 M) was 69.5 °C, the Tm (NaCl 1.5 M) was 71.5 °C and the Tm (NaCl 2 M) was 73.4 °C.
